Test results published in patent US20180177842A1 (CANIMGUIDE THERAPEUTICS, published 2018).
Ends that are not written are not given here.

T1: His-tagged P3028 (human, also: His tag, length and end not given here)
T1 construct: in solution at 0.5 ug/mL, detected with mouse anti-His antibody and rabbit anti-mouse peroxidase (rampo); also called PGE73; His-tag-P3028; not shown: His tag
T1 peptide: VFDEFKPLVEEPQNLIK


Target: T1, His-tagged P3028
Test: PEPSCAN ELISA, peptide on chip;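 further: binding detected by peroxidase ELISA with ABTS, OD405 colour imaged by CCD camera before and after staining, raw OD405 reported as rampo units, air-bubble wells scored 0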
For TKLDTFFVKLSLFTER [SEQ ID NO 280], the “RAMPO Score” value was 493 rampo units. With KKEDTFFVKLSLFTER [SEQ ID NO 285] the “RAMPO Score” value was 528 rampo units. In the case of KKLDCFFVKLSLFTER [SEQ ID NO 304], the “RAMPO Score” value is reported as 449 rampo units. KKHDTFFVKLSLFTER [SEQ ID NO 288] was tested, and the “RAMPO Score” value was 477 rampo units. KKLETFFVKLSLFTER [SEQ ID NO 299] was tested, and the “RAMPO Score” value was 417 rampo units. With KKGDTFFVKLSLFTER [SEQ ID NO 287] the “RAMPO Score” value was 563 rampo units. KKLDNFFVKLSLFTER [SEQ ID NO 306] was tested, and the “RAMPO Score” value was 436 rampo units. In the case of KKLITFFVKLSLFTER [SEQ ID NO 300], the “RAMPO Score” value is reported as 430 rampo units. KKTDTFFVKLSLFTER [SEQ ID NO 296] was tested, and the “RAMPO Score” value was 451 rampo units. With KKNDTFFVKLSLFTER [SEQ ID NO 292] the “RAMPO Score” value was 374 rampo units. With KKVDTFFVKLSLFTER [SEQ ID NO 297] the “RAMPO Score” value was 377 rampo units. For KKLDQFFVKLSLFTER [SEQ ID NO 308], the “RAMPO Score” value was 535 rampo units. KKRDTFFVKLSLFTER [SEQ ID NO 294] was tested, and the “RAMPO Score” value was 370 rampo units. KKIDTFFVKLSLFTER [SEQ ID NO 289] was tested, and the “RAMPO Score” value was 454 rampo units. In the case of KKQDTFFVKLSLFTER [SEQ ID NO 293], the “RAMPO Score” value is reported as 473 rampo units. With KKFDTFFVKLSLFTER [SEQ ID NO 286] the “RAMPO Score” value was 393 rampo units. For VKLDTFFVKLSLFTER [SEQ ID NO 281], the “RAMPO Score” value was 442 rampo units. In the case of KKLYTFFVKLSLFTER [SEQ ID NO 303], the “RAMPO Score” value is reported as 422 rampo units. KKLDPFFVKLSLFTER [SEQ ID NO 307] was tested, and the “RAMPO Score” value was 427 rampo units. With KKLDMFFVKLSLFTER [SEQ ID NO 305] the “RAMPO Score” value was 475 rampo units. For KKLVTFFVKLSLFTER [SEQ ID NO 301], the “RAMPO Score” value was 424 rampo units. With KKLATFFVKLSLFTER [SEQ ID NO 298] the “RAMPO Score” value was 494 rampo units. With KKLWTFFVKLSLFTER [SEQ ID NO 302] the “RAMPO Score” value was 443 rampo units. With KKSDTFFVKLSLFTER [SEQ ID NO 295] the “RAMPO Score” value was 393 rampo units. For KKCDTFFVKLSLFTER [SEQ ID NO 283], the “RAMPO Score” value was 432 rampo units. For KKDDTFFVKLSLFTER [SEQ ID NO 284], the “RAMPO Score” value was 492 rampo units. In the case of KKMDTFFVKLSLFTER [SEQ ID NO 291], the “RAMPO Score” value is reported as 460 rampo units. KKADTFFVKLSLFTER [SEQ ID NO 282] was tested, and the “RAMPO Score” value was 427 rampo units. In the case of KKKDTFFVKLSLFTER [SEQ ID NO 290], the “RAMPO Score” value is reported as 386 rampo units.
